Results: paper PMC6668613 (Nature plants, 2019)
Read-outs that look alike come from different tables or passages of the source. Ends that are not written are not given here.

How the values were obtained:
Test in all cases: BLI
GST-MPK6 [1] = target: T1, GST-MPK6 (Arabidopsis thaliana, UniProt Q39026 1-395)
GST-MPK3 = target: T2, GST-MPK3 (Arabidopsis thaliana, UniProt Q39023 1-370)
T2 sequence (looked up): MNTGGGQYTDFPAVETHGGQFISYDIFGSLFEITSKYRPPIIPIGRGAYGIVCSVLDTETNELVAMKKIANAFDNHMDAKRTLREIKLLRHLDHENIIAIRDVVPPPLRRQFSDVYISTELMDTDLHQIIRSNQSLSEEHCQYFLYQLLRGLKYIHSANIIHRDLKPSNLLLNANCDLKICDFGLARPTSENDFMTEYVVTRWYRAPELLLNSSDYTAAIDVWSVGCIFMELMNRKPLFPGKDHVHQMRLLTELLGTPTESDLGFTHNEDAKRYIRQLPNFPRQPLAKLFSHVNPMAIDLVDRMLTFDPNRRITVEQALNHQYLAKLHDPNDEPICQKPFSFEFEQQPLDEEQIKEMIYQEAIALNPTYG

GST-MPK6 [2] = target: T1, GST-MPK6; remark: listed apart in the source

T1 sequence (Q39026 whole entry): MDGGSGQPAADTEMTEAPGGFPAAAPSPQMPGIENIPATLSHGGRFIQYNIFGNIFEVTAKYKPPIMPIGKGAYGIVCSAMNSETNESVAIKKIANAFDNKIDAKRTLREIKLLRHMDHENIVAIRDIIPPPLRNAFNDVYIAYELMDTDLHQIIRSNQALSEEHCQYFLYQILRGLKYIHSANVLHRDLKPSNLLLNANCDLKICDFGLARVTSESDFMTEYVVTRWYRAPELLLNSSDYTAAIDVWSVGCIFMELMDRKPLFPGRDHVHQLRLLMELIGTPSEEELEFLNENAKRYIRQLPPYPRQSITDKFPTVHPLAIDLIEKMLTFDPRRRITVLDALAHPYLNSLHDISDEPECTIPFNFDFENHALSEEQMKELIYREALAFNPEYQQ

Binder: GGFVGNRAKVLKPLEVL (also: biotinylated, position not given here) [Docking motif peptide, biotinylated]
- Kd (GST-MPK6 [1]): 2300 ± 500 nM

Binder: ASSGAQPTLFQKRAAMRQ (also: biotinylated, position not given here) [KRAAM motif peptide, biotinylated]
- Kd (GST-MPK6 [1]): 2400 ± 400 nM
- Kd (GST-MPK3): 2800 ± 700 nM

Binder: GGFVGNRAKVLKPLEVLASSGAQPTLFQKRAAMRQ (also: biotinylated, position not given here) [SCRM KiDoK full-length peptide, biotinylated]
- Kd (GST-MPK6 [2]): 47 ± 6 nM
